These results are taken from patent US12337027B2, “Methods and compositions relating to lung repair” (THE CHILDREN'S MEDICAL CENTER CORPORATION, priority 2018, dated 2025).

“Also recorded” adds a separate entry of the source.

Data set [1] deals with mice. As to the kind of experiment: Exercise tolerance tests. It counts as in vivo.
Data set [2] concerns C57B16 mice following left pneumonectomy. The data set is described as follows: Compensatory lung growth after left pneumonectomy (lung volume by water displacement). Particulars: for lung growth: compensatory lung growth after pneumonectomy. It counts as in vivo. How it is done:
(§1) C57B16 mice were randomized to receive daily intraperitoneal injection of either saline or soluble fms-like tyrosine kinase 1 (sFlt1) at a dose of 20 mcg/kg following left pneumonectomy. On post-operative day 4, mice underwent pulmonary function studies and were subsequently euthanized for lung volume measurement. Lung volume was determined by water displacement method. […] This therapy can potentially improve lung growth and pulmonary functions in patients suffering from severe pulmonary hypoplasia.
(§2) sFlt1 was administered to mice according to the experimental design depicted in FIG. 6. […] The dose response to sFlt1 was investigated (FIG. 8) and, in mice, 20 mcg/kg sFlt1 was the optimal dosing regimen (FIG. 9).

The test system of data set [3] is HIF-2α. As to the kind of experiment: HIF-2α levels after sFlt1 administration (incl. immunohistochemistry). Format: in vivo, mice. The settings on record: FIG. 11, 12. An excerpt: FIG. 12 depicts immunohistochemical measurements of HIF-2α levels.
In data set [4] the test system is liver and spleen. Set-up: species or system mice. The settings on record: mouse, in vivo. How it is done:
LW/BW: liver weight/body weight, SW/BW: spleen weight/body weight.
as §1

In data set [5] the test system is mice after 70% partial hepatectomy. As to the kind of experiment: Liver regeneration after 70% partial hepatectomy. Particulars: 10, 20, or 50 ug/kg daily intraperitoneal vs saline, POD 4. It counts as in vivo. How it is done:
Mice underwent 70% partial hepatectomy and were randomized to receive saline (control) or one of 3 doses of Flt1 (10, 20, or 50 ug/kg) via intraperitoneal injection. Treatment was performed daily and mice were euthanized on post-operative day (POD) 4 for organ harvest. Liver samples were weighed and normalized against body weight.

Data set [6] has as its system VEGF. As to the kind of experiment: VEGF levels after sFlt1 administration. Particulars: FIG. 11. It counts as in vivo, mice.
The test system of data set [7] is C57B16 mice following left pneumonectomy. The data set is described as follows: Pulmonary function studies after left pneumonectomy. Format: in vivo. How it is done: as §1, §2
The mark [8] stands for this setting: sFlt1 20 mcg/kg daily intraperitoneal vs saline, post-operative day 4.

Regarding `CS(=O)(=O)c1ccc(Oc2cc(F)cc(C#N)c2)c2c1[C@H](O)C(F)(F)C2` [PT-2385, reference compound], in data set [1] (PT-2385 given with sFlt1, FIG. 16, 17), the “effect of HIF-2α inhibition on sFlt1 effect on exercise tolerance” value is listed as “blunt the effects of sFlt1”. For the same molecule, the “effect of HIF-2α inhibition on sFlt1-induced lung growth” value in data set [2] (PT-2385 given with sFlt1, FIG. 15) was “blunt the effects of sFlt1”.

B1: sFlt1: soluble variant of the VEGF receptor encoded by the Flt1 gene (protein, listed as Homo sapiens)
chain: MVSYWDTGVLLCALLSCLLLTGSSSGSKLKDPELSLKGTQHIMQAGQTLHLQCRGEAAHKWSLPEMVSKESERLSITKSACGRNGKQFCSTLTLNTAQANHTGFYSCKYLAVPTSKKKETESAIYIFISDTGRPFVEMYSEIPEIIHMTEGRELVIPCRVTSPNITVTLKKFPLDTLIPDGKRIIWDSRKGFIISNATYKEIGLLTCEATVNGHLYKTNYLTHRQTNTIIDVQISTPRPVKLLRGHTLVLNCTATTPLNTRVQMTWSYPDEKNKRASVRRRIDQSNSHANIFYSVLTIDKMQNKDKGLYTCRVRSGPSFKSVNTSVHIYDKAFITVKHRKQQVLETVAGKRSYRLSMKVKAFPSPEVVWLKDGLPATEKSARYLTRGYSLIIKDVTEEDAGNYTILLSIKQSNVFKNLTATLIVNVKPQIYEKAVSSFPDPALYPLGSRQILTCTAYGIPQPTIKWFWHPCNHNHSEARCDFCSNNEESFILDADSNMGNRIESITQRMAIIEGKNKMASTLVVADSRISGIYICIASNKVGTVGRNISFYITDVPNGFHVNLEKMPTEGEDLKLSCTVNKFLYRDVTWILLRTVNNRTMHYSISKQKMAITKEHSITLNLTIMNVSLQDSGTYACRARNVYTGEEILQKKEITIRGEHCNKKAVFSRISKFKSTRNDCTTQSNVKH
With B1, the “levels of HIF-2α” value in data set [3] is on record as “unexpectedly increases”. Besides, in data set [4], the “organ mass of liver (LW/BW: liver weight/body weight)” value was “does not change” and the “organ mass of spleen (SW/BW: spleen weight/body weight)” value is “does not change”. In addition, the “liver weight normalized against body weight” value in data set [5] is recorded as “no difference in liver weight”. The “baseline activity in exercise tolerance tests” value in data set [1] (FIG. 16) is reported as “increased baseline activity”. The “levels of VEGF” value in data set [6] is “unexpectedly increases”. The lung growth entry in data set [2] was “increases lung growth; also recorded: accelerated lung growth”. Further, the lung growth entry in data set [2] (listed as soluble VEGF receptor) was “accelerated compensatory lung growth”. For the same molecule, the “optimal dosing regimen (dose response)” value in data set [2] (in mice, FIG. 9) amounted to 0.02 mg/kg. Besides, in data set [2] (setting [8]), the “lung volume (LV/BW: lung volume/body weight)” value was “significantly higher lung volume; also recorded: increases lung volume”. Also, in data set [7] (setting [8]), the “inspiratory capacity (IC/BW)” value is “significantly higher; also recorded: improve; also recorded: increases inspiratory capacity”, the pulmonary compliance entry is on record as “improves” and the pulmonary elastance entry was “improves”. Also, the pulmonary mechanics result in data set [7] (sFlt1 at 20 mcg/kg, FIG. 10) is on record as “improved pulmonary mechanics”.
